{"source": "paper PMC3288176", "about": "(ACS Chemical Biology, 2011)", "proteins": {"B1": {"name": "EcPAPR4cys (enzyme, Escherichia coli)", "chain": "MSKLDLNALNELPKVDRILALAETNAELEKLDAEGRVAWALDNLPGEYVLSSSFGIQAAVSLHLVNQIRPDIPVILTDTGYLFPETYRFIDELTDKLKLNLKVYRATESAAWQEARYGKLWEQGVEGIEKCCDINKVEPMNRALKELNAQTWFAGLRREQSGSRANLPVLAIQRGVFKVLPIIDWDNRTIYQYLQKHGLKYHPLWDEGYLSVGCTHCTRKWEPGMAEEETRFFGLKRECGLHEG"}}, "molecular_target": "the molecule itself", "experiment": "SEC", "data": [{"protein": "B1", "values": [{"measurement": "stoichiometry N", "result": 2}]}]}
